± gives the standard deviation of the averaged measurements.

This data set relates to ATP. Nature of the data set: switch fluorescence ratio, 500 uM ATP over buffer (Cy3 cluster intensity, sum of 5 cycles each) (fold (ratio)); higher = stronger signal-on switching upon ATP binding; sequences stand for … in TCGTCGGCAGCGTCAGATGTGTATAAGAGACAGTTTTTTTTTTTTTTTTTTTTTTTTT…TC. Particulars: aptamer strand: ATP DNA aptamer (quencher-CACCTGGGGGAGTATTGCGGAGGAAGG + anchor), 100 nM annealed; ATP concentration: 500 uM. In a few lines:
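Values give the fluorescence ratio for each switch-domain sequence, averaged from per-cluster ratios of summed target-cycle to summed buffer-cycle Cy3 intensity. The Cy3-labelled switching-strand clusters sat on a modified Illumina MiSeq flow-cell, were annealed to 100 nM quencher-labelled ATP aptamer, and were imaged in selection buffer, then after 15 min with 500 uM ATP at 22 °C. Five cycles ran with NaOH stripping and re-annealing between them, and clusters outside 100-1000 RFU were excluded.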
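Note: ATP exposure 15 min at 22 °C before imaging.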

For TTTGAGGGA, the switch fluorescence ratio turned out to be 0.9945 ± 0.0052. Consider AGGTCGCCTG, for which the switch fluorescence ratio was 1.031 ± 0.0069. With GTTGAGTTGA the figure was 1.01 ± 0.021; with ATGCAAGGTC, 1.12 ± 0.049. With CTGTGTAGCT the figure was 1.02 ± 0.024; with TTGTGGAAAT, 1 ± 0.069; with ATTAGTAGCA, 1 ± 0.014.

CTGGCACAGA: the switch fluorescence ratio was 0.988 ± 0.019. In the case of TCAGGGTTGC, the switch fluorescence ratio amounted to 1.03 ± 0.025. Consider ACATGGGGGA, for which the switch fluorescence ratio stood at 1.02 ± 0.0082. With ATTCAGGGGG the figure was 1.07 ± 0.028; with TAATGGAAGG, 1 ± 0.024. The result for TATAATTCTG reads 1.04 ± 0.029. With GCGGGATTAT the figure was 1.012 ± 0.0057. TGATTCCGCA: the switch fluorescence ratio stood at 3.07 ± 0.12. As to GATTAGGGGT, the switch fluorescence ratio was 0.99655 ± 0.00059. With GATGGTAATT the figure was 1 ± 0.025; with CATTTGGCGT, 0.972 ± 0.029; with TTACCTGGGG, 1.03 ± 0.038.

Take ATACTCTATT: the switch fluorescence ratio amounted to 1.07 ± 0.025. Consider TAAATTTTGT, for which the switch fluorescence ratio worked out at 1.02 ± 0.039. Regarding ACGGCTAGCG, the switch fluorescence ratio was 1.02 ± 0.022.

Turning to CCTTATTTTG, the switch fluorescence ratio is 1.05 ± 0.065. For the sequence CGTATGAATA, the switch fluorescence ratio is 0.984 ± 0.011. For GTTGGAGTTA, the switch fluorescence ratio was 0.976 ± 0.023. With TTTATGAGCC the figure was 1.01 ± 0.062. With TGGGGATTGG the figure was 1.17 ± 0.49; with TAGTTCTCTT, 0.989 ± 0.026. As for GGTTTTTTAT, the switch fluorescence ratio came out at 1.02 ± 0.019. Turning to TTTTCAGTTG, the switch fluorescence ratio worked out at 1.002 ± 0.0029. With AAATTTAGCT the figure was 1.0313 ± 0.0006; with TTACCGGATA, 1.035 ± 0.0092; with GTCGAAGAG, 0.987 ± 0.016. With GTTTTTTCTT, the switch fluorescence ratio worked out at 0.971 ± 0.051. With TTCCCGTGGG the figure was 1 ± 0.011; with TTAGAGGAAC, 0.965 ± 0.028; with TTTTGCCTAT, 1 ± 0.025. ATTTTGTTGG: the switch fluorescence ratio came out at 1.11 ± 0.2.

In the case of CCATGGTTAT, the switch fluorescence ratio was 1.026 ± 0.0034.

On to GACATGGGGA, for which the switch fluorescence ratio is 1.06 ± 0.015.

As to CACGGAGCAG, the switch fluorescence ratio worked out at 2.52 ± 0.15. With CCAATGATAA the figure was 1.014 ± 0.0034. With ATGGCGGGTT the figure was 1 ± 0.016; with TTGCGGAGGA, 1.01 ± 0.043. With CTTTGTTACG, the switch fluorescence ratio turned out to be 1.048 ± 0.0015. With CTTGATGTAA the figure was 1 ± 0.064. With AGTTAGTATG the figure was 0.979 ± 0.032; with AATCTGATGG, 0.974 ± 0.044. In the case of ATTAGCTGGT, the switch fluorescence ratio stood at 0.952 ± 0.017. On to AGAGTCAACT, for which the switch fluorescence ratio worked out at 1 ± 0.042. On to GGCTTTACGG, for which the switch fluorescence ratio came out at 1.012 ± 0.0081. The result for ATGGTGAGGG reads 0.962 ± 0.011; that for CGGTTGAGTA, 0.9982 ± 0.0043; that for GGGGTAAAAG, 1.08 ± 0.2. With TAGGGGAAGC the figure was 0.989 ± 0.031. With AATCGCTTTT the figure was 1 ± 0.053; with CAATTTGTCT, 1.01 ± 0.028; with GGTCTTAGAA, 1.033 ± 0.0062.

As to CTATTATGTG, the switch fluorescence ratio amounted to 0.985 ± 0.043. In the case of TGGTCGTTTT, the switch fluorescence ratio is 1.01 ± 0.04. For the sequence GGTAGTGTGG, the switch fluorescence ratio worked out at 0.992 ± 0.023. The result for TCCAGGAATT reads 1 ± 0.016; that for GGTCGCAGGG, 1 ± 0.026; that for CTTTGCCTGG, 0.98 ± 0.026.

On to GTTGACGTTG, for which the switch fluorescence ratio worked out at 0.991 ± 0.054. With ATATTATTGT the figure was 0.9911 ± 0.0085.

Values taken from the supplement of paper PMC10126150.
